Data reported in patent US20220251236A1 (Boehringer Ingelheim, published 2022).

T1: human DLL3 (endogenous, on SCLC cell lines NCI-H82 and SHP77 and in SCLC tissue) (human, UniProt Q9NYJ7 27-618)
T1 sequence (looked up): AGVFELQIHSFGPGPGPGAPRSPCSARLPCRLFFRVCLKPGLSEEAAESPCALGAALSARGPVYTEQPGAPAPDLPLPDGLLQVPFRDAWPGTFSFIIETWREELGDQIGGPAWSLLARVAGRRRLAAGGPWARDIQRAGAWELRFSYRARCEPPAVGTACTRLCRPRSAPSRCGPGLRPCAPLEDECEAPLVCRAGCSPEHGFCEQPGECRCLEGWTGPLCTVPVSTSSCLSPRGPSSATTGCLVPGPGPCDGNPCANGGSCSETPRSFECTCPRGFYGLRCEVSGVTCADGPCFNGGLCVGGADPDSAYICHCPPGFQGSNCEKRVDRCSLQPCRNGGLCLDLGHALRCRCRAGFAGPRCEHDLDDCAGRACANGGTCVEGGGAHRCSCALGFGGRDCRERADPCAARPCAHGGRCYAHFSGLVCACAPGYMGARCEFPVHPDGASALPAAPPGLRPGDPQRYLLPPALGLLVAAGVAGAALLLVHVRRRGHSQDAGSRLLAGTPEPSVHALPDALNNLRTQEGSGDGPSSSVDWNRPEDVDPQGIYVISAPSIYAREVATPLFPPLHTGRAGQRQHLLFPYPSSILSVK

B1: DLL3#2/CD3#1 (bispecific antibody, human IgG1, kappa, lambda, L234A L235A)
chain 1: DIQMTQSPSAMSASVGDRVTITCRASQGISNYLAWFQQKPGKVPEPLIYAASSLQSGVPSRFSGSGSVTEFTLTISSLQPEDFATYYCLQHNSSPYTFGQGTKLEIKRTVAAPSVFIFPPSDEQLKSGTASVVCLLNNFYPREAKVQWKVDNALQSGNSQESVTEQDSKDSTYSLSSTLTLSKADYEKHKVYACEVTHQGLSSPVTKSFNRGECGGGGSEGKSSGSGSESKSTEGKSSGSGSESKSTGGGGSQVQLVQSGAEVKKPGASVKVSCKASGYTFTSYYMHWVRQAPGQGLEWMGIINPSGGSTSYAQKFQGRVTMTRDTSTSTVYMELSSLRSEDTAVYYCARGEAVGGNYYYYGMDVWGQGTTVTVSSASTKGPSVFPLAPSSKSTSGGTAALGCLVKDYFPEPVTVSWNSGALTSGVHTFPAVLQSSGLYSLSSVVTVPSSSLGTQTYICNVNHKPSNTKVDKRVEPKSCDKTHTCPPCPAPEAAGGPSVFLFPPKPKDTLMISRTPEVTCVVVDVSHEDPEVKFNWYVDGVEVHNAKTKPREEQYNSTYRVVSVLTVLHQDWLNGKEYKCKVSNKALPAPIEKTISKAKGQPREPQVYTLPPSREEMTKNQVSLWCLVKGFYPSDIAVEWESNGQPENNYKTTPPVLDSDGSFFLYSKLTVDKSRWQQGNVFSCSVMHEALHNHYTQKSLSLSPG
chain 2: EAVVTQEPSLTVSPGGTVTLTCRSSTGAVTTSNYANWVQEKPGQLPRGLIGGTNKRAPWVPARFSGSLLGGKAALTLSGAQPEDEAEYFCALWYSNLWVFGGGTKLTVLGQPKAAPSVTLFPPSSEELQANKATLVCLISDFYPGAVKVAWKADGSPVNTGVETTTPSKQSNNKYAASSYLSLTPEQWKSHRSYSCQVTHEGSTVEKTVAPAECSGGGGSEGKSSGSGSESKSTEGKSSGSGSESKSTGGGGSEVQLVESGGGLVQPGGSLKLSCAASGFTFNTYAMNWVRQAPGKGLEWVARIRSKYNNYATYYADSVKDRFTISRDDSKNTAYLQMNNLKTEDTAVYYCVRHGNFGNSYVSWFAYWGQGTLVTVSAASTKGPSVFPLAPSSKSTSGGTAALGCLVKDYFPEPVTVSWNSGALTSGVHTFPAVLQSSGLYSLSSVVTVPSSSLGTQTYICNVNHKPSNTKVDKRVEPKSCDKTHTCPPCPAPEAAGGPSVFLFPPKPKDTLMISRTPEVTCVVVDVSHEDPEVKFNWYVDGVEVHNAKTKPREEQYNSTYRVVSVLTVLHQDWLNGKEYKCKVSNKALPAPIEKTISKAKGQPREPQVYTLPPSREEMTKNQVSLSCAVKGFYPSDIAVEWESNGQPENNYKTTPPVLDSDGSFFLVSKLTVDKSRWQQGNVFSCSVMHEALHNRFTQKSLSLSPG
notes: Heterodimer of one DLL3 chain and one CD3 chain (scFab-Fc, knob-in-hole)
B2: DLL3#5/CD3#1 (bispecific antibody, human IgG1, kappa, lambda, L234A L235A)
chain 1: not shown
chain 2: B1 chain 2
notes: as for B1
B3: DLL3#4/CD3#1 (bispecific antibody, human IgG1, kappa, lambda, L234A L235A)
chain 1: not shown
chain 2: B1 chain 2
notes: as for B1
B4: DLL3#17/CD3#1 (bispecific antibody, human IgG1, kappa, lambda, L234A L235A)
chain 1: DIQMTQSPASLAASVGETVTITCRASENIYYSLAWYQQKQGKSPQLLIYNTNSLEDGVPSRFSGSGSGTQYSMKINSMQPEDTATYFCKQAYDFPLTFGAGTKLELKRTVAAPSVFIFPPSDEQLKSGTASVVCLLNNFYPREAKVQWKVDNALQSGNSQESVTEQDSKDSTYSLSSTLTLSKADYEKHKVYACEVTHQGLSSPVTKSFNRGECGGGGSEGKSSGSGSESKSTEGKSSGSGSESKSTGGGGSQIQLQQSGPEVVKPGASVKISCKASGYTFISYYIHWVKQRPGQGLEWIGWIYPGDGSTNNNEKFKGKTTLTADKSSSTAYMLLSSLTSEDSAVYFCARGEGNAMDDWGQGTSVTVSSASTKGPSVFPLAPSSKSTSGGTAALGCLVKDYFPEPVTVSWNSGALTSGVHTFPAVLQSSGLYSLSSVVTVPSSSLGTQTYICNVNHKPSNTKVDKRVEPKSCDKTHTCPPCPAPEAAGGPSVFLFPPKPKDTLMISRTPEVTCVVVDVSHEDPEVKFNWYVDGVEVHNAKTKPREEQYNSTYRVVSVLTVLHQDWLNGKEYKCKVSNKALPAPIEKTISKAKGQPREPQVYTLPPSREEMTKNQVSLWCLVKGFYPSDIAVEWESNGQPENNYKTTPPVLDSDGSFFLYSKLTVDKSRWQQGNVFSCSVMHEALHNHYTQKSLSLSPG
chain 2: B1 chain 2
notes: as for B1
B5: DLL3#18/CD3#1 (bispecific antibody, human IgG1, kappa, lambda, L234A L235A)
chain 1: DIQMTQSPASLAASVGETVTITCRASENIYYSLAWYQQKQGKSPQLLIYNANSLEDGVPSRFSGSGSGTQYSMKINNMQPEDTATYFCKQAYDVPLTFGAGTKLELKRTVAAPSVFIFPPSDEQLKSGTASVVCLLNNFYPREAKVQWKVDNALQSGNSQESVTEQDSKDSTYSLSSTLTLSKADYEKHKVYACEVTHQGLSSPVTKSFNRGECGGGGSEGKSSGSGSESKSTEGKSSGSGSESKSTGGGGSQVQLQQSGPDLVKPGASVKMSCEASGYTFTAYFIHWVKQKPGQGLEWIGYIDPFNDDTNYNVKFKGKATLTSDTSSSIAYMELSSLTSEDSSFYYCARGTSATLDYWGHGTTLTVSSASTKGPSVFPLAPSSKSTSGGTAALGCLVKDYFPEPVTVSWNSGALTSGVHTFPAVLQSSGLYSLSSVVTVPSSSLGTQTYICNVNHKPSNTKVDKRVEPKSCDKTHTCPPCPAPEAAGGPSVFLFPPKPKDTLMISRTPEVTCVVVDVSHEDPEVKFNWYVDGVEVHNAKTKPREEQYNSTYRVVSVLTVLHQDWLNGKEYKCKVSNKALPAPIEKTISKAKGQPREPQVYTLPPSREEMTKNQVSLWCLVKGFYPSDIAVEWESNGQPENNYKTTPPVLDSDGSFFLYSKLTVDKSRWQQGNVFSCSVMHEALHNHYTQKSLSLSPG
chain 2: B1 chain 2
notes: as for B1
B6: DLL3#13/CD3#1 (bispecific antibody, human IgG1, kappa, lambda, L234A L235A)
chain 1: DVLMTQTPLSLPVSLGDQAAISCRSSQSIVHSNGNTYLEWYLQKPGQSPKVLIYKVSNRFSGVPDRFSGSGSGTDFTLKISRVEAEDLGVYYCFQGSHVPYTFGGGTKLEIKRTVAAPSVFIFPPSDEQLKSGTASVVCLLNNFYPREAKVQWKVDNALQSGNSQESVTEQDSKDSTYSLSSTLTLSKADYEKHKVYACEVTHQGLSSPVTKSFNRGECGGGGSEGKSSGSGSESKSTEGKSSGSGSESKSTGGGGSQIQLVQSGPELKKPGETVKISCKASGYTFTNYGVTWVKQAPGKGLKWMGWINTYSGAPTYADDFNGRFALSLETSASTAYLQINNLKNEDTATYFCARLDDYDLYYFDYWGQGTALTVSSASTKGPSVFPLAPSSKSTSGGTAALGCLVKDYFPEPVTVSWNSGALTSGVHTFPAVLQSSGLYSLSSVVTVPSSSLGTQTYICNVNHKPSNTKVDKRVEPKSCDKTHTCPPCPAPEAAGGPSVFLFPPKPKDTLMISRTPEVTCVVVDVSHEDPEVKFNWYVDGVEVHNAKTKPREEQYNSTYRVVSVLTVLHQDWLNGKEYKCKVSNKALPAPIEKTISKAKGQPREPQVYTLPPSREEMTKNQVSLWCLVKGFYPSDIAVEWESNGQPENNYKTTPPVLDSDGSFFLYSKLTVDKSRWQQGNVFSCSVMHEALHNHYTQKSLSLSPG
chain 2: B1 chain 2
notes: as for B1

Key:
[1] = target: T1, human DLL3 (endogenous, on SCLC cell …); assay: cell-based or functional assay
[2] = target: T1, human DLL3 (endogenous, on SCLC cell …); assay: cell-based or functional assay; remark: listed apart in the source
[3] = target: T1, human DLL3 (endogenous, on SCLC cell …); assay: flow cytometry titration on NCI-H82 cells, PE anti-human secondary, x-fold over background
Text: Cells (T cells or human SCLC cells) were stained with increasing concentrations of two-step purified DLL3/CD3 binding proteins with increasing concentrations in FACS buffer (PBS/0.5% BSA/0.05% sodium azide). Bound molecules were detected with PE-conjugated anti-human secondary antibody (Sigma-Aldrich, #P8047).

Binder | EC50 (read off the curve) [3] [nM] | further results
B1 | – | EC90, 72 hour cytotoxicity assay (LDH release), non-stimulated PBMCs as effector cells, NCI-H82 target cells [1]: 2.9 nM; EC90, 72 hour cytotoxicity assay (LDH release), non-stimulated PBMCs as effector cells, SHP77 target cells [1]: 3.4 nM; EC90, 72 hour cytotoxicity assay, purified T cells as effector cells, NCI-H82 target cells [2]: 1.51 nM; EC90, 72 hour cytotoxicity assay, purified T cells as effector cells, SHP77 target cells [2]: 0.16 nM
B2 | ~5 | –
B3 | ~1 | –
B4 | ~1 | –
B5 | ~1 | –
B6 | ~1 | –
